The record followed here is publication PMC2278140, “Regulation of the cd38 promoter in human airway smooth muscle cells by TNF-α and dexamethasone”.

Holding throughout (conditions): protein: commercial; chain copies: 2; label: 32P 5' end; blunt
The target of data set [1] is T1, glucocorticoid receptor (GR) (human, UniProt P04150 1-777). As to the kind of experiment: EMSA; 20% glycerol, 5 mM MgCl2, 2.5 mM EDTA, 2.5 mM DTT, 250 mM NaCl, 50 mM Tris-HCl pH 7.5, 0.25 mg/ml poly(dI-dC), room temperature 30 min; 0.4 pmol probe in 10 μl, 5 μg extract or 1 μg GR. (In EMSA bound probe runs differently from free probe, usually more slowly.)
T1 sequence (P04150 whole entry): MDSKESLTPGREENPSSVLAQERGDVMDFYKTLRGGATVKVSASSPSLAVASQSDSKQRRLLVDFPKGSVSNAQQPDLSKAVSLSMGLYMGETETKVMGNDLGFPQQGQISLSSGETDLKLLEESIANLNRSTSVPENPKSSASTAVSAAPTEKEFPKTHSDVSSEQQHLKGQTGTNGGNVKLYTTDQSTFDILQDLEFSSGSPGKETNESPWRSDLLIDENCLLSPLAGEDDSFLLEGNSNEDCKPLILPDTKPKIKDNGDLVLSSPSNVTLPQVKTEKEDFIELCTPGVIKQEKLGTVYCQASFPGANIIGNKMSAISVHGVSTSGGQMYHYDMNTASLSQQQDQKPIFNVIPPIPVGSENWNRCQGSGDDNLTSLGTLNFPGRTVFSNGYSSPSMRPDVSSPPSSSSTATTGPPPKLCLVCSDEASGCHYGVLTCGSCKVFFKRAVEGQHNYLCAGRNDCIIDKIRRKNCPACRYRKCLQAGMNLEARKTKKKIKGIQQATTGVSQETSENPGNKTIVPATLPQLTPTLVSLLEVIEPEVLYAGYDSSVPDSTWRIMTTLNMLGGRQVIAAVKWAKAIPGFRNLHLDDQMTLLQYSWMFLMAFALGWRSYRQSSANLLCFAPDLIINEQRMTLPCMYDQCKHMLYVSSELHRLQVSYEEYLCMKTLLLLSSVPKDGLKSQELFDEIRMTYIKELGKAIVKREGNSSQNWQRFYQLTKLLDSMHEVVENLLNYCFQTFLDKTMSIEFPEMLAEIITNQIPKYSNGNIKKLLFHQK
Data set [2] has as its target T1, glucocorticoid receptor (GR). Kind of data set: competition; excess unlabeled vs labeled GRE consensus; 20% glycerol, 5 mM MgCl2, 2.5 mM EDTA, 2.5 mM DTT, 250 mM NaCl, 50 mM Tris-HCl pH 7.5, 0.25 mg/ml poly(dI-dC), room temperature 30 min; 0.4 pmol probe in 10 μl, 5 μg extract or 1 μg GR.
The target is the same in data set [3]. Kind of data set: EMSA; anti-GR supershift; 20% glycerol, 5 mM MgCl2, 2.5 mM EDTA, 2.5 mM DTT, 250 mM NaCl, 50 mM Tris-HCl pH 7.5, 0.25 mg/ml poly(dI-dC), room temperature 30 min; 0.4 pmol probe in 10 μl, 5 μg extract or 1 μg GR.
The target is the same in data set [4]. As to the kind of experiment: competition; excess unlabeled self vs labeled GRE4; 20% glycerol, 5 mM MgCl2, 2.5 mM EDTA, 2.5 mM DTT, 250 mM NaCl, 50 mM Tris-HCl pH 7.5, 0.25 mg/ml poly(dI-dC), room temperature 30 min; 0.4 pmol probe in 10 μl, 5 μg extract or 1 μg GR.
The target is the same in data set [5]. Kind of data set: competition; excess unlabeled self vs labeled GRE3; 20% glycerol, 5 mM MgCl2, 2.5 mM EDTA, 2.5 mM DTT, 250 mM NaCl, 50 mM Tris-HCl pH 7.5, 0.25 mg/ml poly(dI-dC), room temperature 30 min; 0.4 pmol probe in 10 μl, 5 μg extract or 1 μg GR.

B1: GRE1 (dsDNA)
DNA 1: AATGTCACAGATGTTCTCTTAATAAAGA
DNA 2: TCTTTATTAAGAGAACATCTGTGACATT
As to B1, in data set [1], the binding result is on record as “binds”.

B2: GRE2 (dsDNA)
DNA 1: TTCCGAACTTCTGTTCTGTTTCCCTCAA
DNA 2: TTGAGGGAAACAGAACAGAAGTTCGGAA
Consider B2, for which the binding result in data set [2] was “no binding”.

B3: GRE consensus (dsDNA)
DNA 1: TAGAGGATCTGTACAGGATGTTCTAGAT
DNA 2: ATCTAGAACATCCTGTACAGATCCTCTA
For the molecule B3, in data set [3], the binding result is “binds”.

B4: GRE4 (dsDNA)
DNA 1: GCCATTGTAACTGTTCTCCATCCTTATC
DNA 2: GATAAGGATGGAGAACAGTTACAATGGC
On to B4, for which the binding result in data set [4] is listed as “binds”.

B5: GRE3 (dsDNA)
DNA 1: AAGCACTGCCATGTTCTCACTTATAAGT
DNA 2: ACTTATAAGTGAGAACATGGCAGTGCTT
With B5, the binding result in data set [5] is “binds”.
